According to patent US8796201B2 (The Board of Trustees of the Leland Stanford Junior …, priority 2002, dated 2014):

Assays:
[1] = Retention of PEP activity on lyophilization, enteric coating, storage and tabletting; type: physicochemical
Protocol: Lyophilization of M. xanthus PEP was performed as follows. The PEP was purified as described in Example 3, and concentrated to an initial concentration of 7.7 mg/ml by Tangential-Flow Filtration (TFF) using a 10K MWCO Pellicon difiltration membrane (Millipore, PLCGC10, 50 cm, Cat. No. PXC010C50). TFF (using a LabScale TFF from Millipore, Cat. No. 29751) was performed for approximately 12 hours (pressure of 50 psi (retentate)/30 psi (permeant)), with periodic addition to the reservoir of 50 mM Sodium Phosphate, 3% Sucrose pH 7.5. Thereafter, PEG-4000 was added with a target concentration of 1%. The final protein concentration was 70-100 mg/ml. This material was centrifuged, then lyophilized. The lyophilization was performed in square petri dishes (Falcon Cat. No. 35-1112) in a DuraStop lyophilizer using parameters outlined in the Table below. Typically, 0.7-0.85 mg PEP was present per mg of lyophilized material.
The enteric coating was mixed vigorously in a beaker on a stir plate. The solution was then decanted into a spray bottle. Rat capsules were carefully spread on paper towels in groups of 20 and the enteric coating solution sprayed onto the capsules. Warm air was used to partially dry the capsules before moving them to a dry paper towel where they air-dried for 30 minutes before the next coat was applied. A total of 3 coats were applied in order to cover all sides of the capsules. […]

[2] = Double-blind crossover gluten challenge: 72-hour quantitative fecal fat test; type: in vivo, human (Celiac Sprue patients)
Excerpt: (§1) It was first established that a low-dose, short-term (5-10 g/day for 14 days) gluten oral supplement induces fat and carbohydrate malabsorption when given to asymptomatic Celiac Sprue patients on an otherwise gluten free diet. This protocol was modified to examine the effect of gluten pre-treated with pepsin, trypsin and chymotrypsin (PTC-Gluten) as compared to PTC-Gluten additionally treated with PEP (PTC-Gluten+PEP). In this study, Celiac patients maintaining a gluten-free diet ingested a supplement of 5 g/day gluten as PTC-Gluten or PTC-Gluten+PEP in an orange-lemon juice vehicle for 14 days in a double-blind crossover manner. A 6-week washout interval between individual arms of the crossover trial allowed patients to recover completely from the effects, if any, of the test material in the first arm.
(§2) Subjects and protocols: This study was approved by the Institutional Review Board of the Palo Alto Medical Foundation in Palo Alto, Calif., and all participants in the study were counseled regarding risks and signed an informed consent document. 22 patients were recruited who were in symptomatic remission on a gluten-free diet. Two patients dropped out of the study, one near the end of the first stage and the other prior to the second stage. The 20 patients who completed the study included 7 men and […] aged 21 to 78 (mean age 49). The time since diagnosis for the 20 patients ranged from 3 months to 18 years (mean 6 years). Patients provided copies of their initial small-intestinal biopsy pathology report and laboratory reports documenting a history of at least one positive celiac antibody (gliadin, endomysial or transglutaminase) to verify a diagnosis of Celiac Sprue. They also completed an entry questionnaire inquiring about their medical history, adherence to the gluten-free diet, and current symptoms. The format of the study was a double-blinded crossover in which each patient consumed either a low daily dose of a gluten supplement (5 g; equivalent of one-half slice of bread) that was predigested with pepsin, trypsin and chymotrypsin alone (PTC-Gluten) or PTC-Gluten treated with prolyl endopeptidase (PTC-Gluten+PEP). The PEP in the latter orange juice mixture was completely inactivated through a heating process following proteolysis of the gliadin peptides. […]
(§3) Studied variables: During each stage of the study, patients completed a daily questionnaire inquiring about symptoms and their adherence to the gluten-free diet. […] The serum anti-gliadin IgA antibodies and anti-tissue transglutaminase IgA and IgG antibodies were measured by an enzyme linked immunosorbent assay (ELISA) kit (INOVA Diagnostics, Inc., San Diego, Calif.). […] Total serum IgA levels were determined by an Integra instrument (Roche) (normal <81 mg/dl). […]

[3] = Double-blind crossover gluten challenge: 25 g D-xylose 5-hour urine excretion test; type: in vivo, human (Celiac Sprue patients)
Excerpt: as §1, §2, §3

[4] = All patients with full Fecal Fat data (N = 17)
[5] = Subgroup with normal to Mild Steatorrhea (N = 8)
[6] = All patients with full xylose data (N = 14)
[7] = Subgroup with normal (>4 gm/5 hrs) Pre-stage Xylose (N = 10)

Molecule | specific activity upon lyophilization [1] | PEP Effective (patients / patients with positive gluten challenge), fecal fat [2, 4] | PEP Effective, fecal fat [2, 4] | PEP Effective (patients / patients with positive gluten challenge), fecal fat [2, 5] | PEP Effective, fecal fat [2, 5] | PEP Effective (patients / patients with positive gluten challenge), urine xylose [3, 6] | PEP Effective, urine xylose [3, 6] | PEP Effective (patients / patients with positive gluten challenge), urine xylose [3, 7] | PEP Effective, urine xylose [3, 7]
MX PEP: novel recombinant prolyl endopeptidase from Myxococcus xanthus (Genbank AF127082, SEQ ID NO:47) (protein, listed as Myxococcus xanthus) MSYPATRAEQVVDTLHGVQVADPYRWLEDEKAPEVQTWMTAQNAHAREALAKFPGREALAARFKELFYTDSVSTPSRRNGRFFYVRTHKDKEKAILYWRQGESGQEKVLLDPNGWSKDGTVSLGTWAVSWDGKKVAFAQKPNAADEAVLHVIDVDSGEWSKVDVIEGGKYATPKWTPDSKGFYYEWLPTDPSIKVDERPGYTTIRYHTLGTEPSKDTVVHERTGDPTTFLQSDLSRDGKYLFVYILRGWSENDVYWKRPGEKDFRLLVKGVGAKYEVHAWKDRFYVLTDEGAPRQRVFEVDPAKPARASWKEIVPEDSSASLLSVSIVGGHLSLEYLKDATSEVRVATLKGKPVRTVQLPGVGAASNLMGLEDLDDAYYVFTSFTTPRQIYKTSVSTGKSELWAKVDVPMNPEQYQVEQVFYASKDGTKVPMFVVHRKDLKRDGNAPTLLYGYGGFNVNMEANFRSSILPWLDAGGVYAVANLRGGGEYGKAWHDAGRLDKKQNVFDDFHAAAEYLVQQKYTQPKRLAIYGGSNGGLLVGAAMTQRPELYGAVVCAVPLLDMVRYHLFGSGRTWIPEYGTAEKPEDFKTLHAYSPYHHVRPDVRYPALLMMAADHDDRVDPMHARKFVAAVQNSPGNPATALLRIEANAGHGGADQVAKAIESSVDLYSFLFQVLDVQGAQGGVAAQGR | No loss of specific activity |  |  |  |  |  |  |  | 
PEP: prolyl endopeptidase; Examples 1-2: from Flavobacterium meningosepticum (US Biological); Example 11: source not stated (protein, UniProt P27028 21-705, looked up) Prolyl endopeptidase: QNSNVLKYPETKKVSHTDTYFGTQVSDPYRWLEDDRAEDTKAWVQQEVKFTQDYLAQIPFRDQLKKQLMDIWNYEKISAPFKKGKYTYFSKNDGLQAQSVLYRKDAAGKTEVFLDPNKFSEKGTTSLASVSFNKKGTLVAYSISEGGSDWNKIIILDAETKKQLDETLLDVKFSGISWLGDEGFFYSSYDKPKEGSVLSGMTDKHKVYFHKLGTKQSQDELIIGGDKFPRRYIGAYVTDDQRYLVVSAANATNGNELYIKDLKNKTDFIPIITGFDSNVNVADTDGDTLYLFTDKDAPNKRLVKTTIQNPKAETWKDVIAETSEPLEINTGGGYFFATYMKDAIDQVKQYDKNGKLVRAIKLPGSGNASGFGGEKTEKDLYYSFTNYITPPTIFKYNVTTGNSEVYQKPKVKFNPENYVSEQVFYTSSDGTKIPMMISYKKGLKKDGKNPTILYSYGGFNISLQPAFSVVNAIWMENGGIYAVPNIRGGGEYGKKWHDAGTKMQKKNVFNDFIAAGEYLQKNGYTSKEYMALSGRSNGGLLVGATMTMRPDLAKVAFPGVGVLDMLRYNKFTAGAGWAYDYGTAEDSKEMFEYLKSYSPVHNVKAGTCYPSTMVITSDHDDRVVPAHSFKFGSELQAKQSCKNPILIRIETNAGHGAGRSTEQVVAENADLLSFALYEMGIKSLK |  | 5/7 | 71% | 4/4 | 100% | 4/8 | 50% | 3/5 | 60%
